Reference: patent publication US20140213513A1 (Sanofi, priority 2012, published 2014)
*1 amine or outer side, *2 acyl side, *3 side chain or, on linkers, in order; H or OH if unused. Where no end group is shown, it is not given here. Side-chain parts run from the residue outwards. [ ]: non-standard residue; d: D form. The star is where a group is joined. γGlu = O=C(O)[C@H](CCC(=O)[*:2])N[*:1]; Palmitoyl = CCCCCCCCCCCCCCCC(=O)*; Aib = CC(C)(N)C(=O)O

T1: human GIP receptor (human, UniProt P48546 22-466)
T1 sequence (looked up): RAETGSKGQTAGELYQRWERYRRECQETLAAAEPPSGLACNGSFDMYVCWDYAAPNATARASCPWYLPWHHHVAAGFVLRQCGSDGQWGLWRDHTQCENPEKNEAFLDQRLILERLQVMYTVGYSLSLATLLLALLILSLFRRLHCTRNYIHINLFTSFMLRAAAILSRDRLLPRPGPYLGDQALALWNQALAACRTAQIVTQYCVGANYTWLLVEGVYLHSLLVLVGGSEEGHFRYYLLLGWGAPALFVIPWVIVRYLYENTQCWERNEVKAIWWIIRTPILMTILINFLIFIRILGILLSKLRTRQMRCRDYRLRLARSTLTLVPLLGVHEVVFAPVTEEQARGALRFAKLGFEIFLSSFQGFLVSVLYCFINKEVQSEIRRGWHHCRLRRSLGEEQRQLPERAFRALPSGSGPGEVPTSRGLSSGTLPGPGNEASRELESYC

B1: exendin-4 peptide analogue SEQ ID NO: 52 (peptide)
peptide: Y[Aib]QGTFTSDLSIQK([γGlu-Palmitoyl])DSRRAQDFIEWLKAGGPSSGAPPPS-NH2
modifications: N-terminus assumed
SMILES: CCCCCCCCCCCCCCCC(=O)N[C@@H](CCC(=O)NCCCC[C@H](NC(=O)[C@H](CCC(N)=O)NC(=O)[C@@H](NC(=O)[C@H](CO)NC(=O)[C@H](CC(C)C)NC(=O)[C@H](CC(=O)O)NC(=O)[C@H](CO)NC(=O)[C@@H](NC(=O)[C@H](Cc1ccccc1)NC(=O)[C@@H](NC(=O)CNC(=O)[C@H](CCC(N)=O)NC(=O)C(C)(C)NC(=O)[C@@H](N)Cc1ccc(O)cc1)[C@@H](C)O)[C@@H](C)O)[C@@H](C)CC)C(=O)N[C@@H](CC(=O)O)C(=O)N[C@@H](CO)C(=O)N[C@@H](CCCNC(=N)N)C(=O)N[C@@H](CCCNC(=N)N)C(=O)N[C@@H](C)C(=O)N[C@@H](CCC(N)=O)C(=O)N[C@@H](CC(=O)O)C(=O)N[C@@H](Cc1ccccc1)C(=O)N[C@H](C(=O)N[C@@H](CCC(=O)O)C(=O)N[C@@H](Cc1c[nH]c2ccccc12)C(=O)N[C@@H](CC(C)C)C(=O)N[C@@H](CCCCN)C(=O)N[C@@H](C)C(=O)NCC(=O)NCC(=O)N1CCC[C@H]1C(=O)N[C@@H](CO)C(=O)N[C@@H](CO)C(=O)NCC(=O)N[C@@H](C)C(=O)N1CCC[C@H]1C(=O)N1CCC[C@H]1C(=O)N1CCC[C@H]1C(=O)N[C@@H](CO)C(N)=O)[C@@H](C)CC)C(=O)O
B2: exendin-4 peptide analogue SEQ ID NO: 53 (peptide)
peptide: Y[Aib]QGTFTSDLSIQK([γGlu-Palmitoyl])DKRRAQDFIEWLKAGGPSSGAPPPS-NH2
modifications: N-terminus assumed
SMILES: CCCCCCCCCCCCCCCC(=O)N[C@@H](CCC(=O)NCCCC[C@H](NC(=O)[C@H](CCC(N)=O)NC(=O)[C@@H](NC(=O)[C@H](CO)NC(=O)[C@H](CC(C)C)NC(=O)[C@H](CC(=O)O)NC(=O)[C@H](CO)NC(=O)[C@@H](NC(=O)[C@H](Cc1ccccc1)NC(=O)[C@@H](NC(=O)CNC(=O)[C@H](CCC(N)=O)NC(=O)C(C)(C)NC(=O)[C@@H](N)Cc1ccc(O)cc1)[C@@H](C)O)[C@@H](C)O)[C@@H](C)CC)C(=O)N[C@@H](CC(=O)O)C(=O)N[C@@H](CCCCN)C(=O)N[C@@H](CCCNC(=N)N)C(=O)N[C@@H](CCCNC(=N)N)C(=O)N[C@@H](C)C(=O)N[C@@H](CCC(N)=O)C(=O)N[C@@H](CC(=O)O)C(=O)N[C@@H](Cc1ccccc1)C(=O)N[C@H](C(=O)N[C@@H](CCC(=O)O)C(=O)N[C@@H](Cc1c[nH]c2ccccc12)C(=O)N[C@@H](CC(C)C)C(=O)N[C@@H](CCCCN)C(=O)N[C@@H](C)C(=O)NCC(=O)NCC(=O)N1CCC[C@H]1C(=O)N[C@@H](CO)C(=O)N[C@@H](CO)C(=O)NCC(=O)N[C@@H](C)C(=O)N1CCC[C@H]1C(=O)N1CCC[C@H]1C(=O)N1CCC[C@H]1C(=O)N[C@@H](CO)C(N)=O)[C@@H](C)CC)C(=O)O
B3: exendin-4 peptide analogue SEQ ID NO: 50 (peptide)
peptide: Y[Aib]QGTFTSDLSIQK([γGlu-Palmitoyl])DSRAVQDFIEWLKAGGPSSGAPPPS-NH2
modifications: N-terminus assumed
SMILES: CCCCCCCCCCCCCCCC(=O)N[C@@H](CCC(=O)NCCCC[C@H](NC(=O)[C@H](CCC(N)=O)NC(=O)[C@@H](NC(=O)[C@H](CO)NC(=O)[C@H](CC(C)C)NC(=O)[C@H](CC(=O)O)NC(=O)[C@H](CO)NC(=O)[C@@H](NC(=O)[C@H](Cc1ccccc1)NC(=O)[C@@H](NC(=O)CNC(=O)[C@H](CCC(N)=O)NC(=O)C(C)(C)NC(=O)[C@@H](N)Cc1ccc(O)cc1)[C@@H](C)O)[C@@H](C)O)[C@@H](C)CC)C(=O)N[C@@H](CC(=O)O)C(=O)N[C@@H](CO)C(=O)N[C@@H](CCCNC(=N)N)C(=O)N[C@@H](C)C(=O)N[C@H](C(=O)N[C@@H](CCC(N)=O)C(=O)N[C@@H](CC(=O)O)C(=O)N[C@@H](Cc1ccccc1)C(=O)N[C@H](C(=O)N[C@@H](CCC(=O)O)C(=O)N[C@@H](Cc1c[nH]c2ccccc12)C(=O)N[C@@H](CC(C)C)C(=O)N[C@@H](CCCCN)C(=O)N[C@@H](C)C(=O)NCC(=O)NCC(=O)N1CCC[C@H]1C(=O)N[C@@H](CO)C(=O)N[C@@H](CO)C(=O)NCC(=O)N[C@@H](C)C(=O)N1CCC[C@H]1C(=O)N1CCC[C@H]1C(=O)N1CCC[C@H]1C(=O)N[C@@H](CO)C(N)=O)[C@@H](C)CC)C(C)C)C(=O)O
B4: exendin-4 peptide analogue SEQ ID NO: 51 (peptide)
peptide: Y[Aib]QGTFTSDLSIQK([γGlu-Palmitoyl])DSRAQQDFIEWLKAGGPSSGAPPPS-NH2
modifications: N-terminus assumed
SMILES: CCCCCCCCCCCCCCCC(=O)N[C@@H](CCC(=O)NCCCC[C@H](NC(=O)[C@H](CCC(N)=O)NC(=O)[C@@H](NC(=O)[C@H](CO)NC(=O)[C@H](CC(C)C)NC(=O)[C@H](CC(=O)O)NC(=O)[C@H](CO)NC(=O)[C@@H](NC(=O)[C@H](Cc1ccccc1)NC(=O)[C@@H](NC(=O)CNC(=O)[C@H](CCC(N)=O)NC(=O)C(C)(C)NC(=O)[C@@H](N)Cc1ccc(O)cc1)[C@@H](C)O)[C@@H](C)O)[C@@H](C)CC)C(=O)N[C@@H](CC(=O)O)C(=O)N[C@@H](CO)C(=O)N[C@@H](CCCNC(=N)N)C(=O)N[C@@H](C)C(=O)N[C@@H](CCC(N)=O)C(=O)N[C@@H](CCC(N)=O)C(=O)N[C@@H](CC(=O)O)C(=O)N[C@@H](Cc1ccccc1)C(=O)N[C@H](C(=O)N[C@@H](CCC(=O)O)C(=O)N[C@@H](Cc1c[nH]c2ccccc12)C(=O)N[C@@H](CC(C)C)C(=O)N[C@@H](CCCCN)C(=O)N[C@@H](C)C(=O)NCC(=O)NCC(=O)N1CCC[C@H]1C(=O)N[C@@H](CO)C(=O)N[C@@H](CO)C(=O)NCC(=O)N[C@@H](C)C(=O)N1CCC[C@H]1C(=O)N1CCC[C@H]1C(=O)N1CCC[C@H]1C(=O)N[C@@H](CO)C(N)=O)[C@@H](C)CC)C(=O)O
B5: exendin-4 peptide analogue SEQ ID NO: 54 (peptide)
peptide: Y[Aib]EGTFTSDLSIQK([γGlu-Palmitoyl])DKRKAQDFIEWLKNGGPSSGAPPPS-NH2
modifications: N-terminus assumed
SMILES: CCCCCCCCCCCCCCCC(=O)N[C@@H](CCC(=O)NCCCC[C@H](NC(=O)[C@H](CCC(N)=O)NC(=O)[C@@H](NC(=O)[C@H](CO)NC(=O)[C@H](CC(C)C)NC(=O)[C@H](CC(=O)O)NC(=O)[C@H](CO)NC(=O)[C@@H](NC(=O)[C@H](Cc1ccccc1)NC(=O)[C@@H](NC(=O)CNC(=O)[C@H](CCC(=O)O)NC(=O)C(C)(C)NC(=O)[C@@H](N)Cc1ccc(O)cc1)[C@@H](C)O)[C@@H](C)O)[C@@H](C)CC)C(=O)N[C@@H](CC(=O)O)C(=O)N[C@@H](CCCCN)C(=O)N[C@@H](CCCNC(=N)N)C(=O)N[C@@H](CCCCN)C(=O)N[C@@H](C)C(=O)N[C@@H](CCC(N)=O)C(=O)N[C@@H](CC(=O)O)C(=O)N[C@@H](Cc1ccccc1)C(=O)N[C@H](C(=O)N[C@@H](CCC(=O)O)C(=O)N[C@@H](Cc1c[nH]c2ccccc12)C(=O)N[C@@H](CC(C)C)C(=O)N[C@@H](CCCCN)C(=O)N[C@@H](CC(N)=O)C(=O)NCC(=O)NCC(=O)N1CCC[C@H]1C(=O)N[C@@H](CO)C(=O)N[C@@H](CO)C(=O)NCC(=O)N[C@@H](C)C(=O)N1CCC[C@H]1C(=O)N1CCC[C@H]1C(=O)N1CCC[C@H]1C(=O)N[C@@H](CO)C(N)=O)[C@@H](C)CC)C(=O)O
B6: exendin-4 peptide analogue SEQ ID NO: 10 (peptide)
peptide: Y[Aib]QGTFTSDLSIQK([γGlu-Palmitoyl])EKYAA[Aib]EFIEWLKNTGPSSGAPPPS-NH2
modifications: N-terminus assumed
SMILES: CCCCCCCCCCCCCCCC(=O)N[C@@H](CCC(=O)NCCCC[C@H](NC(=O)[C@H](CCC(N)=O)NC(=O)[C@@H](NC(=O)[C@H](CO)NC(=O)[C@H](CC(C)C)NC(=O)[C@H](CC(=O)O)NC(=O)[C@H](CO)NC(=O)[C@@H](NC(=O)[C@H](Cc1ccccc1)NC(=O)[C@@H](NC(=O)CNC(=O)[C@H](CCC(N)=O)NC(=O)C(C)(C)NC(=O)[C@@H](N)Cc1ccc(O)cc1)[C@@H](C)O)[C@@H](C)O)[C@@H](C)CC)C(=O)N[C@@H](CCC(=O)O)C(=O)N[C@@H](CCCCN)C(=O)N[C@@H](Cc1ccc(O)cc1)C(=O)N[C@@H](C)C(=O)N[C@@H](C)C(=O)NC(C)(C)C(=O)N[C@@H](CCC(=O)O)C(=O)N[C@@H](Cc1ccccc1)C(=O)N[C@H](C(=O)N[C@@H](CCC(=O)O)C(=O)N[C@@H](Cc1c[nH]c2ccccc12)C(=O)N[C@@H](CC(C)C)C(=O)N[C@@H](CCCCN)C(=O)N[C@@H](CC(N)=O)C(=O)N[C@H](C(=O)NCC(=O)N1CCC[C@H]1C(=O)N[C@@H](CO)C(=O)N[C@@H](CO)C(=O)NCC(=O)N[C@@H](C)C(=O)N1CCC[C@H]1C(=O)N1CCC[C@H]1C(=O)N1CCC[C@H]1C(=O)N[C@@H](CO)C(N)=O)[C@@H](C)O)[C@@H](C)CC)C(=O)O

target: human GLP-1 receptor (human, UniProt P43220 24-463); assay: cell-based or functional assay

Binder | EC50 hGLP-1 R
B1 | 0.0256 nM
B2 | 0.0136 nM
B3 | 0.01 nM
B4 | 0.0042 nM
B5 | 0.0668 nM
B6 | 0.0052 nM

target: T1, human GIP receptor; assay: cell-based or functional assay

Binder | EC50 hGIP R
B1 | 0.182 nM
B2 | 0.0932 nM
B3 | 0.0479 nM
B4 | 0.0063 nM
B5 | 0.105 nM
B6 | 0.0144 nM

target: human glucagon receptor (human, UniProt P47871 26-477); assay: cell-based or functional assay
Sequence (P47871 26-477): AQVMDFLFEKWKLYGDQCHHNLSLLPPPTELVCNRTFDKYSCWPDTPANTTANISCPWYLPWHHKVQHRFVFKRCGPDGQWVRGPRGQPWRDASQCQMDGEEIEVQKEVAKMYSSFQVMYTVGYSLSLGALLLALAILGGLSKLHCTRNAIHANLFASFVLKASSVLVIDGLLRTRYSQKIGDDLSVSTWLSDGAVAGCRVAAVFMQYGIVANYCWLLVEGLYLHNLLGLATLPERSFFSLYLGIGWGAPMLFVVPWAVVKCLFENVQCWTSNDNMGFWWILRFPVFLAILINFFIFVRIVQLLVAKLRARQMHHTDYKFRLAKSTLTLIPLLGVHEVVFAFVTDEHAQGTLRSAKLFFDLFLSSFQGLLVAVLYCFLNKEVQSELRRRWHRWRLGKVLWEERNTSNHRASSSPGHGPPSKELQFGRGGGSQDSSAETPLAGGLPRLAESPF

Binder | EC50 hGLUC R
B1 | 0.0133 nM
B2 | 0.0079 nM
B3 | 1.72 nM
B4 | 0.571 nM
B5 | 2.62 nM
B6 | 0.667 nM
